B1: H4H12871P (antibody, human IgG4 S228P, kappa, V domains shown)
VH: QVQLQESGPGLVKPSQTLSLTCTVSGGSITSGGYYWSWIRQYPGQGLEWIGYIYYSGKTYYNPSFTSRITISVDTSKKQFSLKMSSVTAADTAVYYCARAGFTSSNGWFDPWGQGTLVTVSS
VL: DIQMTQSPSSLSASVGDRVTITCRASQNIRSYLNWYQQKPGKAPKLLIYSASSLQSGVPSRFSGSGSGTDFTLTISSLQPEDFPTYYCQQTYSSPWTFGPGTKVEIKR
notes: anti-IL2Rγ monoclonal antibody expressed with human IgG4 Fc; also called REGN9434
B2: H4H12874P (antibody, human IgG4 S228P, kappa, V domains shown)
VH: QVQLVESGGGVVQPGRSLRLSCAASGFNFRNFGMHWVRQAPGKGLEWVAGILYDGSSKYYADSVKDRFTISRDNSKNTLFLQMNSLRAEDTAMYYCAKEEDTAMVPFDSWGPGTLVTVSS
VL: DIQLTQSPSFLSASVGDRVTITCWASQGISSYLAWYQQKPGKAPTLLIYAASTLQSGVPSRFSGSGSGTEFTLTISSLQPEDFASYYCQQLKSYPLTFGGGTKVEIKR
notes: anti-IL2Rγ monoclonal antibody expressed with human IgG4 Fc
B3: H4H12858P (antibody, human IgG4 S228P, kappa, V domains shown)
VH: EVQLVESGGDLVQPGGSLRLSCTASGFIFRNYAMNWVRQAPGKGLEWLSGILGSNDNTYYVDSVKGRFTISRDNSRNTLYLQMNSLRAEDSAVYYCAKGDAGGFDYWGQGTLVTVSS
VL: DVVMTQSPLSLPVILGQPASISCRSSQSLVSSDGNTYLNWFQQRPGQSPRRLIYKVSNRDSGVPDRFSGSGSGTDFTLKISRVEAEDVGAYYCMQGSYWPPTFGQGTKLEIKR
notes: anti-IL2Rγ monoclonal antibody expressed with human IgG4 Fc; also called REGN9433
B4: H4H12863P (antibody, human IgG4 S228P, kappa, V domains shown)
VH: QVQLVESGGGVVQPGRSLRLSCTASGFTFRSYDMYWVRQAPGKGLEWVSVITYDGNNKYYADSVKGRFTISRDNSKNTLFLQMSSLRPEDTAVYYCAKRGLIWVGESFDYWGQGTLVTVSS
VL: DIQMTQSPSTLSASVGDRVTITCRASQSINSWLAWYQQKPGKAPNLLIYKASSLESGVPSRFSGSGSGTEFTLTISSLQPDDFATYYCQQYKSYSWTFGQGTKVEIKR
notes: as for B2
B5: H4H12859P (antibody, human IgG4 S228P, kappa, V domains shown)
VH: QVQLVQSGAEVKKPGASVRVSCKASGYTFTDYDIHWVRQAPGHGLEWMGWINPNSGGTNYAQKFQGRVTMTRDTSISTVYMDLSRLRSDDTAVYYCARADYSSSYYYYGMDVWGQGTTVTVSS
VL: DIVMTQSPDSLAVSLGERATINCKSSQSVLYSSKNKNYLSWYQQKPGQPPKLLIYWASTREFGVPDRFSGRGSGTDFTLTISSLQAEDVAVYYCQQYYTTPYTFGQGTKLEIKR
notes: as for B2

Where a chain is given by its changes, count along the chain named.

The first assay deals with T1, Macaca fascicularis IL2Rγ extracellular domain expressed with a C-terminal myc-myc-hexahistidine tag (Macaca fascicularis).
T1 construct: also called mfIL-2Rg-MMH; mfIL-2RG-MMH
T1 chain: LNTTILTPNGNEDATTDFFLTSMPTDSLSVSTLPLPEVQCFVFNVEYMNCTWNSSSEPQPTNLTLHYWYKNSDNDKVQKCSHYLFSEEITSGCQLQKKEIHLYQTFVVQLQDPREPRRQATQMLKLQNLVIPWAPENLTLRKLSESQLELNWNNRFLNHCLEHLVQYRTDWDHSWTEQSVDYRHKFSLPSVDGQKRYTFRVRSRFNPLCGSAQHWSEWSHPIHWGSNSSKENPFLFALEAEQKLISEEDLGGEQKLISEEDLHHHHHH
As to the kind of experiment: SPR Biacore 4000, mAb captured by anti-hFc, 37C, dissociation in PBS-T pH 7.4. The protocol: (§1) The dissociation rate constant (kd) for binding of IL-2Rγ reagents to purified anti-IL2Rγ monoclonal antibodies was determined using a real-time surface plasmon resonance based Biacore 4000 biosensor platform. […] The CM5 Biacore sensor surface derivatized by amine coupling with monoclonal mouse anti-human Fc antibody (GE, Catalog # BR-1008-39) was used to capture anti-IL2Rγ monoclonal antibodies expressed with human IgG4 Fc. All the IL2Rγ reagents were expressed with a C-terminal myc-myc-hexahistidine tag (subsequently referred to with a -MMH suffix). […] The dissociation of bound IL-2Rg-MMH was performed in PBS-T-pH7.4 or PBS-T-pH6.0 running buffers for 6 minutes.
(§2) Dissociation rate constants (kd) in two running buffers were determined by fitting the real-time binding sensorgrams to a 1:1 binding model using Scrubber 2.0c curve-fitting software. Values of dissociation rate for […] mAb binding to hIL-2RG-MMH and mfIL-2RG-MMH at 25° C. and 37° C. in PBS-T-pH7.4 and PBS-T-pH6.0 is shown in Table 2-1 through Table 2-8.
Regarding B1, the “100 nM Ag Bound (RU)” value was found to be 143 RU, the koff is 0.00102 s⁻¹ and the t1/2 was 11 min.

For the molecule B2, the “100 nM Ag Bound (RU)” value is 92 RU, the off-rate (koff) came out at 0.000541 s⁻¹ and the t1/2 came to 21 min.

B3: the “100 nM Ag Bound (RU)” value turned out to be 143 RU, the dissociation rate constant (koff) came to 0.000542 s⁻¹ and the t1/2 was found to be 21 min.

For B4, the “100 nM Ag Bound (RU)” value turned out to be 177 RU, the koff was found to be 0.000606 s⁻¹ and the t1/2 was found to be 19 min.

As for B5, the “100 nM Ag Bound (RU)” value was found to be 47 RU, the koff worked out at 0.00397 s⁻¹ and the t1/2 stood at 2.9 min.

A further assay has as its target T2, Human IL2Rγ extracellular domain expressed with a C-terminal myc-myc-hexahistidine tag (human).
T2 construct: also called hIL-2Rg-MMH; hIL-2RG-MMH
T2 chain: T1 chain with A14T, T16A, S22T, R141H, S228T
As to the kind of experiment: SPR Biacore 4000, mAb captured by anti-hFc, HBS-ET, 37C. The procedure: (§3) Equilibrium dissociation constants (KD values) for IL-2Rγ binding to purified anti-IL2Rγ monoclonal antibodies were determined using a Biacore 4000 instrument equipped with a real-time surface plasmon resonance biosensor. All binding studies were performed in 10 mM HEPES, 150 mM NaCl, 3 mM EDTA, and 0.05% v/v Surfactant Tween-20, pH 7.4 (HBS-ET) running buffer at 25° C. and 37° C. The Biacore sensor surface was first derivatized by amine coupling with a monoclonal mouse anti-human Fc antibody (GE, # BR-1008-39) to capture anti-IL2Rγ monoclonal antibodies.
(§4) The dissociation of monoclonal antibody bound IL2Rγ reagents were monitored for 8-10 minutes in HBS-ET running buffer. Kinetic association (kₐ) and dissociation (kd) rate constants were determined by fitting the real-time sensorgrams to a 1:1 binding model using Scrubber 2.0c curve fitting software. Binding dissociation equilibrium constants (KD) and dissociative half-lives (t_{1/2}) were calculated from the kinetic rate constants as: […]
B1: the “100 nM Ag Bound” value stood at 61 RU, the Kd stood at 10.6 nM, the koff was found to be 0.00266 s⁻¹ and the kon is 250000 M⁻¹ s⁻¹. The t1/2 is 4 min.

Turning to B2, the “100 nM Ag Bound” value turned out to be 52 RU, binding was put at a Kd of 10.4 nM, the dissociation rate constant (koff) turned out to be 0.00125 s⁻¹ and the association rate constant (kon) was 120000 M⁻¹ s⁻¹. The molecule also had a t1/2 of 9 min.

Regarding B3, the “100 nM Ag Bound” value worked out at 57 RU, the Kd worked out at 4.52 nM, the off-rate (koff) was 0.00174 s⁻¹ and the association rate constant (kon) was found to be 386000 M⁻¹ s⁻¹. The t1/2 was determined as 7 min.

B4: the “100 nM Ag Bound” value was determined as 77 RU; the affinity, expressed as Kd, was 4.11 nM; the koff came to 0.00151 s⁻¹; the kon turned out to be 367000 M⁻¹ s⁻¹. Besides, the t1/2 was 8 min.

For the molecule B5, the “100 nM Ag Bound” value is 18 RU, the equilibrium dissociation constant (Kd) came out at 187 nM, the dissociation rate constant (koff) was 0.0129 s⁻¹ and the kon was 69000 M⁻¹ s⁻¹. In addition, the t1/2 was 0.9 min.

The target in another assay is T1, Macaca fascicularis IL2Rγ extracellular …. Put plainly: SPR Biacore 4000, mAb captured by anti-hFc, 37C, dissociation in PBS-T pH 6.0. The protocol: as §1, §2
For B1, the “100 nM Ag Bound (RU)” value was 141 RU, the off-rate constant (koff) worked out at 0.00227 s⁻¹ and the t1/2 came out at 5 min.

On to B2, for which the “100 nM Ag Bound (RU)” value is 82 RU, the koff turned out to be 0.00255 s⁻¹ and the t1/2 was determined as 5 min.

As to B3, the “100 nM Ag Bound (RU)” value came to 134 RU, the koff worked out at 0.00155 s⁻¹ and the t1/2 turned out to be 7 min.

As to B4, the “100 nM Ag Bound (RU)” value was determined as 141 RU, the koff was determined as 0.00208 s⁻¹ and the t1/2 worked out at 6 min.

Turning to B5, the “100 nM Ag Bound (RU)” value turned out to be 31 RU, the koff is 0.0123 s⁻¹ and the t1/2 was 0.9 min.

A further assay addresses T2, Human IL2Rγ extracellular domain …. As to the kind of experiment: SPR Biacore 4000, mAb captured by anti-hFc, HBS-ET, 25C. The procedure:
as §3, §4
For the molecule B1, the “100 nM Ag Bound” value was 77 RU, binding was characterised by a dissociation constant (Kd) of 5.03 nM, the off-rate constant (koff) came to 0.001 s⁻¹ and the association rate constant (kon) is 199000 M⁻¹ s⁻¹. The t1/2 came out at 12 min.

On to B2, for which the “100 nM Ag Bound” value worked out at 57 RU; the affinity, expressed as Kd, was 3.57 nM; the koff was found to be 0.000305 s⁻¹; the association rate constant (kon) turned out to be 85200 M⁻¹ s⁻¹. Also, the t1/2 was determined as 38 min.

Regarding B3, the “100 nM Ag Bound” value was 67 RU; the affinity, expressed as Kd, was 1.23 nM; the off-rate constant (koff) worked out at 0.000316 s⁻¹; the kon was 257000 M⁻¹ s⁻¹. This molecule also yielded a t1/2 of 37 min.

In the case of B4, the “100 nM Ag Bound” value is 91 RU, the Kd stood at 1.7 nM, the off-rate (koff) was determined as 0.000384 s⁻¹ and the kon was 226000 M⁻¹ s⁻¹. The t1/2 was found to be 30 min.

Regarding B5, the “100 nM Ag Bound” value was 27 RU, the Kd was found to be 87.6 nM, the dissociation rate constant (koff) came to 0.00321 s⁻¹ and the kon is 36600 M⁻¹ s⁻¹. The t1/2 amounted to 4 min.

In a further assay the target is T1, Macaca fascicularis IL2Rγ extracellular …. The description is as above. The procedure: as §3, §4
With B1, the “100 nM Ag Bound” value came to 72 RU; the affinity, expressed as Kd, was 5.19 nM; the koff came out at 0.000905 s⁻¹; the kon was found to be 174000 M⁻¹ s⁻¹. Besides, the t1/2 was determined as 13 min.

B2: the “100 nM Ag Bound” value was found to be 50 RU; the affinity, expressed as Kd, was 4.28 nM; the koff amounted to 0.000306 s⁻¹; the kon came out at 71500 M⁻¹ s⁻¹. The t1/2 was 38 min.

Regarding B3, the “100 nM Ag Bound” value is 58 RU, the Kd was 2.36 nM, the koff came out at 0.000269 s⁻¹ and the kon amounted to 114000 M⁻¹ s⁻¹. Besides, the t1/2 came to 43 min.

Consider B4, for which the “100 nM Ag Bound” value was determined as 81 RU, binding was put at a Kd of 1.91 nM, the dissociation rate constant (koff) turned out to be 0.00036 s⁻¹ and the kon came out at 189000 M⁻¹ s⁻¹. Besides, the t1/2 was 32 min.

Turning to B5, the “100 nM Ag Bound” value came to 17 RU, binding was put at a Kd of 126 nM, the koff was found to be 0.00507 s⁻¹ and the on-rate constant (kon) is 40300 M⁻¹ s⁻¹. Besides, the t1/2 was 2.3 min.
